Results published in US20220153847A1 (Chugai, published 2022).

T1: HLA-DQ6.3 on Ba/F3 cells (human, UniProt P01920 33-230, limits assumed)
T1 construct: whole, on cells; also called Ba/F3-HLA-DQ6.3
T1 MHC II alpha: not shown
T1 MHC II beta: not shown

T2: HLA-DQ2.2 on Ba/F3 cells (human, UniProt P01909 24-216, limits assumed)
T2 construct: whole, on cells; also called Ba/F3-HLA-DQ2.2
T2 MHC II alpha: not shown
T2 MHC II beta: not shown


Columns and labels:
HLA-DQ6.3 on Ba/F3 cells = target: T1, HLA-DQ6.3 on Ba/F3 cells; assay: FACS on Ba/F3-HLA-DQ6.3 cells, single antibody concentration, goat F(ab')2 anti-human IgG-PE
[1] = target: T3, HLA-DQ2.5/BC hordein peptide complex on Ba/F3 cells (human); assay: FACS, Ba/F3 cells; IC17=0%, DQN0139bb//IC17=100%;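 note: flow cytometry binding of anti-HLA-DQ antibodies at 5 µg/mL, incubated 30 min at room temperature with Ba/F3 lines presenting HLA-DQ/peptide complexes; antibody tested at 5 microgram/mL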
T3 construct: whole, on cells; also called Ba/F3-HLA-DQ2.5/BC hordein
From the text: (§1) The binding of anti-HLA-DQ antibodies to Ba/F3-HLA-DQ2.5, Ba/F3-HLA-DQ2.2, Ba/F3-HLA-DQ7.5, Ba/F3-HLA-DQ8, Ba/F3-HLA-DQ5.1, Ba/F3-HLA-DQ6.3, Ba/F3-HLA-DQ7.3, Ba/F3-HLA-DR, Ba/F3-HLA-DP, Ba/F3-HLA-DQ2.5/CLIP, Ba/F3-HLA-DQ2.5/HBV, Ba/F3-HLA-DQ2.5/Salmonella, Ba/F3-HLA-DQ2.5/TPO, Ba/F3-HLA-DQ2.5/M. bovis, Ba/F3-HLA-DQ2.5/alpha 1 gliadin, Ba/F3-HLA-DQ2.5/alpha 2 gliadin, Ba/F3-HLA-DQ2.5/gamma 1 gliadin, Ba/F3-HLA-DQ2.5/gamma 2 gliadin, Ba/F3-HLA-DQ2.5/omega 1 gliadin, Ba/F3-HLA-DQ2.5/omega 2 gliadin, Ba/F3-HLA-DQ2.5/BC hordein, Ba/F3-HLA-DQ2.5/alpha 3 gliadin, Ba/F3-HLA-DQ2.5/alpha 1b gliadin, Ba/F3-HLA-DQ2.5/gamma 4b gliadin, Ba/F3-HLA-DQ2.5/avenin 1, Ba/F3-HLA-DQ2.5/avenin 2, Ba/F3-HLA-DQ2.5/avenin 3, Ba/F3-HLA-DQ2.5/hordein 1, Ba/F3-HLA-DQ2.5/hordein 2, Ba/F3-HLA-DQ2.5/secalin 1, Ba/F3-HLA-DQ2.5/secalin 2, Ba/F3-HLA-DQ2.5/14mer 1, Ba/F3-HLA-DQ2.5/33mer gliadin, Ba/F3-HLA-DQ2.5/26mer gliadin, was tested. 5 microgram/mL of each of the anti-HLA-DQ antibodies was incubated with each cell line for 30 minutes at room temperature and washed with FACS buffer (2% FBS, 2 mM EDTA in PBS).

[2] = target: T4, HLA-DQ2.5/secalin 2 peptide complex on Ba/F3 cells (human); assay: FACS, Ba/F3 cells; IC17=0%, DQN0139bb//IC17=100%;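 note: flow cytometry binding of anti-HLA-DQ antibodies at 5 µg/mL, incubated 30 min at room temperature with Ba/F3 lines presenting HLA-DQ/peptide complexes; antibody tested at 5 microgram/mL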
T4 construct: whole, on cells; also called Ba/F3-HLA-DQ2.5/secalin 2
From the text: as §1

[3] = target: T5, HLA-DQ2.5/gamma 1 gliadin peptide complex on Ba/F3 cells (human); assay: FACS, Ba/F3 cells; IC17=0%, DQN0139bb//IC17=100%;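 note: flow cytometry binding of anti-HLA-DQ antibodies at 5 µg/mL, incubated 30 min at room temperature with Ba/F3 lines presenting HLA-DQ/peptide complexes; antibody tested at 5 microgram/mL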
T5 construct: whole, on cells; also called Ba/F3-HLA-DQ2.5/gamma 1 gliadin; HLA-DQ2.5/g1 gliadin
From the text: as §1

[4] = target: T6, HLA-DQ2.5/alpha 1b gliadin peptide complex on Ba/F3 cells (human); assay: FACS, Ba/F3 cells; IC17=0%, DQN0139bb//IC17=100%;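 note: flow cytometry binding of anti-HLA-DQ antibodies at 5 µg/mL, incubated 30 min at room temperature with Ba/F3 lines presenting HLA-DQ/peptide complexes; antibody tested at 5 microgram/mL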
T6 construct: whole, on cells; also called Ba/F3-HLA-DQ2.5/alpha 1b gliadin; HLA-DQ2.5/a1b gliadin
From the text: as §1

[5] = target: T7, HLA-DQ2.5/33mer gliadin peptide complex on Ba/F3 cells (human); assay: FACS, Ba/F3 cells; IC17=0%, DQN0139bb//IC17=100%
T7 construct: whole, on cells; also called Ba/F3-HLA-DQ2.5/33mer gliadin
From the text: as §1

[6] = target: T8, HLA-DQ2.5/14mer 1 peptide complex on Ba/F3 cells (human); assay: FACS, Ba/F3 cells; IC17=0%, DQN0139bb//IC17=100%
T8 construct: whole, on cells; also called Ba/F3-HLA-DQ2.5/14mer 1
From the text: as §1

[7] = target: T9, HLA-DQ2.5/hordein 2 peptide complex on Ba/F3 cells (human); assay: FACS, Ba/F3 cells; IC17=0%, DQN0139bb//IC17=100%
T9 construct: whole, on cells; also called Ba/F3-HLA-DQ2.5/hordein 2
From the text: as §1

[8] = target: T10, HLA-DQ2.5/alpha 2 gliadin peptide complex on Ba/F3 cells (human); assay: FACS, Ba/F3 cells; IC17=0%, DQN0139bb//IC17=100%
T10 construct: whole, on cells; also called Ba/F3-HLA-DQ2.5/alpha 2 gliadin; HLA-DQ2.5/a2 gliadin
From the text: as §1

[9] = target: T11, HLA-DQ2.5/gamma 4b gliadin peptide complex on Ba/F3 cells (human); assay: FACS, Ba/F3 cells; IC17=0%, DQN0139bb//IC17=100%
T11 construct: whole, on cells; also called Ba/F3-HLA-DQ2.5/gamma 4b gliadin; HLA-DQ2.5/g4b gliadin
From the text: as §1

[10] = target: T12, HLA-DQ2.5/omega 2 gliadin peptide complex on Ba/F3 cells (human); assay: FACS, Ba/F3 cells; IC17=0%, DQN0139bb//IC17=100%
T12 construct: whole, on cells; also called Ba/F3-HLA-DQ2.5/omega 2 gliadin; HLA-DQ2.5/w2 gliadin
From the text: as §1

HLA-DQ2.2 on Ba/F3 cells = target: T2, HLA-DQ2.2 on Ba/F3 cells; assay: FACS, Ba/F3 cells; IC17=0%, DQN0139bb//IC17=100%
From the text: as §1

[11] = target: T13, HLA-DQ2.5/26mer gliadin peptide complex on Ba/F3 cells (human); assay: FACS, Ba/F3 cells; IC17=0%, DQN0139bb//IC17=100%
T13 construct: whole, on cells; also called Ba/F3-HLA-DQ2.5/26mer gliadin
From the text: as §1

[12] = target: T14, HLA-DQ2.5/alpha 1 gliadin peptide complex on Ba/F3 cells (human); assay: FACS, Ba/F3 cells; IC17=0%, DQN0139bb//IC17=100%
T14 construct: whole, on cells; also called Ba/F3-HLA-DQ2.5/alpha 1 gliadin; HLA-DQ2.5/a1 gliadin
From the text: as §1

[13] = target: T15, HLA-DQ2.5/hordein 1 peptide complex on Ba/F3 cells (human); assay: FACS, Ba/F3 cells; IC17=0%, DQN0139bb//IC17=100%
T15 construct: whole, on cells; also called Ba/F3-HLA-DQ2.5/hordein 1
From the text: as §1

[14] = target: T16, HLA-DQ2.5/alpha 3 gliadin peptide complex on Ba/F3 cells (human); assay: FACS, Ba/F3 cells; IC17=0%, DQN0139bb//IC17=100%
T16 construct: whole, on cells; also called Ba/F3-HLA-DQ2.5/alpha 3 gliadin; HLA-DQ2.5/a3 gliadin
From the text: as §1

[15] = target: T17, HLA-DQ2.5/secalin 1 peptide complex on Ba/F3 cells (human); assay: FACS, Ba/F3 cells; IC17=0%, DQN0139bb//IC17=100%
T17 construct: whole, on cells; also called Ba/F3-HLA-DQ2.5/secalin 1
From the text: as §1

[16] = target: T18, HLA-DQ2.5/gamma 2 gliadin peptide complex on Ba/F3 cells (human); assay: FACS, Ba/F3 cells; IC17=0%, DQN0139bb//IC17=100%
T18 construct: whole, on cells; also called Ba/F3-HLA-DQ2.5/gamma 2 gliadin; HLA-DQ2.5/g2 gliadin
From the text: as §1

[17] = target: T19, HLA-DQ2.5/omega 1 gliadin peptide complex on Ba/F3 cells (human); assay: FACS, Ba/F3 cells; IC17=0%, DQN0139bb//IC17=100%
T19 construct: whole, on cells; also called Ba/F3-HLA-DQ2.5/omega 1 gliadin; HLA-DQ2.5/w1 gliadin
From the text: as §1

| Binder | binding result (HLA-DQ6.3 on Ba/F3 cells) | % MFI [1] | % MFI [2] | % MFI [3] | % MFI [4] | % MFI [5] | % MFI [6] | % MFI [7] | % MFI [8] | % MFI [9] | % MFI [10] | % MFI (HLA-DQ2.2 on Ba/F3 cells) | % MFI [11] | % MFI [12] | % MFI [13] | % MFI [14] | % MFI [15] | % MFI [16] | % MFI [17] |
| --- | --- | --- | --- | --- | --- | --- | --- | --- | --- | --- | --- | --- | --- | --- | --- | --- | --- | --- | --- |
| IC17 (antibody, V domains shown, also called IC17 bivalent; TC17) VH: QVQLQQSGPQLVRPGASVKISCKASGYSFTSYWMHWVNQRPGQGLEWIGMIDPSYSETRLNQKFKDKATLTVDKSSSTAYMQLSSPTSEDSAVYYCALYGNYFDYWGQGTTLTVSS VL: DIQMTQSSSSFSVSLGDRVTITCKASEDIYNRLAWYQQKPGNAPRLLISGATSLETGVPSRFSGSGSGKDYTLSITSLQTEDVATYYCQQYWSTPYTFGGGTKLEVK | no binding (tested: 5 microgram/mL) | – | – | – | – | – | – | – | – | – | – | – | – | – | – | – | – | – | – |
| DQN0429cc//IC17 (bispecific antibody, human IgG1, kappa) heavy 1: QEQLVESGGGLVQPEGSLTLTCTASGFSFSSSYYMCWVRQAPGKGLEWIGCIYTGSGSTDYATWVNGRFTISKTSSTTVTLQMTSLTVADTATYFCARDIGIDYNFWGPGTLVTVSSASTKGPSVFPLAPSSKSTSGGTAALGCLVKDYFPEPVTVSWNSGALTSGVHTFPAVLQSSGLYSLSSVVTVPSSSLGTQTYICNVNHKPSNTKVDKRVEPKSCDKTHTCPPCPAPELRRGPSVFLFPPKPKDTLMISRTPEVTCVVVDVSHEDPEVKFNWYVDGVEVHNAKTKPREEQYNSTYRVVSVLTVLHQDWLNGKEYKCKVSNKALPAPIEKTISKAKGQPREPQVYTLPPSREEMTKNQVSLTCLVKGFYPSDIAVEWESNGQPENNYKTTPPYLDSDGSFFLYSKLTVDKSRWQQGNVFSCSVMHEALHNHYTQESLSLSP light 1: AFELTQTPSFVEARVGGTVTIKCQATQSISSYLNWYQQKPGQPPKLLIYYASTLASGVPSRFKGSGSGTEFTLTISGVECADAATYYCHYGISYVSFGGGTKVEIKRTVAAPSVFIFPPSDEQLKSGTASVVCLLNNFYPREAKVQWKVDNALQSGNSQESVTEQDSKDCTYSLSSTLTLSKADYEKHKVYACEVTHQGLSSPVTKSFNRGEC heavy 2: QVQLQQSGPQLVRPGASVKISCKASGYSFTSYWMHWVNQRPGQGLEWIGMIDPSYSETRLNQKFKDKATLTVDKSSSTAYMQLSSPTSEDSAVYYCALYGNYFDYWGQGTTLTVSSASTKGPSVFPLAPSSKSTSGGTAALGCLVKDYFPEPVTVSWNSGALTSGVHTFPAVLQSSGLYSLSSVVTVPSSSLGTQTYICNVNHKPSNTKVDKRVEPKSCDKTHTCPPCPAPELRRGPSVFLFPPKPKDTLMISRTPEVTCVVVDVSHEDPEVKFNWYVDGVEVHNAKTKPREEQYNSTYRVVSVLTVLHQDWLNGKEYKCKVSNKALPAPIEKTISKAKGQPREPQVYTLPPSRKEMTKNQVSLTCLVKGFYPSDIAVEWESNGQPENNYKTTPPYLDSDGSFFLYSKLTVDKSRWQQGNVFSCSVMHEALHNHYTQKSLSLSP light 2: DIQMTQSSSSFSVSLGDRVTITCKASEDIYNRLAWYQQKPGNAPRLLISGATSLETGVPSRFSGSGSGKDYTLSITSLQTEDVATYYCQQYWSTPYTFGGGTKLEVKRTVAAPSVFIFPPSDEQLKSGTASVVCLLNNFYPREAKVQWKVDNALQSGNSQESVTEQDSKDSTYSLSSTLTLSKADYEKHKVYACEVTHQGLSSPVTKSFNRGEC | – | 14.9% | 30.6% | 12.6% | 9.2% | 67.1% | 16.3% | 93.2% | 55.5% | 3.2% | 45.4% | 0.3% | 26.2% | 3.5% | 1.5% | 0.8% | 10.9% | 0.8% | 11.5% |
